Reference: article PMC4882459

Biological target: ES-62 (Acanthocheilonema viteae)
Assay: SPR; Biacore 3000; 300 RU of ES-62 amine-coupled to a CM5 chip; CRP 10 ug/ml to 20 ng/ml flowed at 10 ul/min; HBS with 1 mM CaCl2 and 0.005% P20, pH 7.4; Langmuir 1:1 analysis, ka and kd calculated separately; avidity

B1: C-reactive protein (native, human) (natural protein)
chain: QTDMSRKAFVFPKESDTSYVSLKAPLTKPLKAFTVCLHFYTELSSTRGYSIFSYATKRQDNEILIFWSKDIGYSFTVGGSEILFEVPEVTVAPVHICTSWESASGIVEFWVDGKPRVRKSLKKGYTVGAEASIILGQEQDSFGGNFEGSQSLVGDIGNVNMWDFVLSPDEINTIYLGGPFSPNVLNWRALKYEVQGEVFTKPQLWP
Question: How did the Kd turn out when B1 was run?
Answer: Its Kd is 0.1 nM.

Question: What about the koff of the same binder?
Answer: Its koff is 0.0006 to 0.0014 s⁻¹.
